Like-named read-outs stand apart in the source and are kept apart here.
Key:
[1] = system: VEGF 3a/1 ZFP (NLS-ZFP-VP16-FLAG) (synthetic construct (SP1 backbone)); details: ChIP anti-FLAG, 293 cells, GAPDH-normalized; 170.4 in Table 7
[2] = system: GATA 15.5 ZFP (NLS-ZFP-VP16-FLAG) (synthetic construct (SP1 backbone)); details: ChIP anti-FLAG, 293 cells, GAPDH-normalized; 1.9 in Table 7; control ZFP
[3] = system: VEGF 3a/1 ZFP (NLS-ZFP-VP16-FLAG) (synthetic construct (SP1 backbone)); experiment: cell_activity; details: 293 cells
[4] = system: GATA 15.5 ZFP (NLS-ZFP-VP16-FLAG) (synthetic construct (SP1 backbone)); experiment: cell_activity; details: 293 cells
[5] = system: VEGF 3a/1 ZFP (NLS-ZFP-VP16-FLAG) (synthetic construct (SP1 backbone)); details: ChIP anti-FLAG, 293 cells, GAPDH-normalized
[6] = system: GATA 15.5 ZFP (NLS-ZFP-VP16-FLAG) (synthetic construct (SP1 backbone)); details: ChIP anti-FLAG, 293 cells, GAPDH-normalized; designed for a different site

GGGGAGGATCGCGGAGGCTT (double strand) was tested. Which binding signal (fold enrichment vs NVF) [1] did it give?
Its binding signal (fold enrichment vs NVF) is 74.1.

And the binding signal (fold enrichment vs NVF) [2]?
Its binding signal (fold enrichment vs NVF) is 0.88.

And the activity (fold luciferase vs NVF) ([3]; integrated reporter, 10 in Table 8)?
Its activity (fold luciferase vs NVF) is 18.

And the activity (fold luciferase vs NVF) ([4]; integrated reporter, 1 in Table 8)?
Its activity (fold luciferase vs NVF) is 0.8.

“GGGGAGGATCGCGGAGGCTT (double strand) [endogenous VEGF-A gene target at +1 accessible region]” was tested. Which activity (fold VEGF mRNA vs NVF) ([3]; VEGF protein 1.2, mRNA 1.0 and protein 1.5 in Table 9) did it give?
Its activity (fold VEGF mRNA vs NVF) is 1.6.

What about the binding signal (fold enrichment vs NVF) [5] of the same substance?
Its binding signal (fold enrichment vs NVF) is 12.1.

For “endogenous VEGF-A gene (GATA 15.5 bound site not mapped)”, which activity (fold VEGF mRNA vs NVF) ([4]; VEGF protein 1.2, mRNA 2.0 and protein 2.0 in Table 9) is on record?
The activity (fold VEGF mRNA vs NVF) was 2.

What about the binding signal (fold enrichment vs NVF) [6] of the same substance?
The binding signal (fold enrichment vs NVF) was 4.1.
